The test concerns the target ApexGT2 trimer (HIV-1 isolate BG505). Put plainly: cryo-EM structure.

We go through one molecule from article PMC9671094.

B1: PCT64 35S Fab (Fab, V domains shown)
VH: EVQLVESGGGLVKPGGSLRLACVGSEFTFSEAWMTWVRQAPGKGLEWVGHMRPTTEGGAKDYAAAVRGRFTIARDDSKSTLYLQMNSLKIEDTGVYYCMTGVERGDFWSDDYSQHYNTYLIDVWGKGTTVTVSS
VL: EIVLTQSPGTLSLSPGDRATLSCRATQSVGGDYFAWYQQRPGQSPRLLIYGTSRRAAGIPDRFSGSGSGTDFTLTIDRLEPEDFAVYYCRQYETSFTFGPGTKVDIK
The molecule B1 gave a stoichiometry N (Fab per trimer) of 1.
